According to US12134663B2, “Cationic peptides for activating Lck” (Interk Peptide Therapeutics Limited, priority 2018, dated 2024):
“Also recorded” adds a separate entry of the source. Where no end group is shown, it is not given here. [ ]: non-standard residue; d: D form. 2Adod = 2-amino-dodecanoic acid; Orn = NCCC[C@H](N)C(=O)O

Biological target: T1, Lck (Homo sapiens, UniProt P06239)
T1 construct: purchased Eurofins Pharma Discovery Services UK Limited
Experiment: Lck Activity above control (1 µM)
Details: not given
Description: Table printed on a drawing sheet, FIG. 4
(§1) Head of the field: Lck Activity above control (1 µM)
First copying reader's note: The first column holds the sequence together with the SEQ ID NO and peptide code in one cell; activity was measured at 1 µM peptide.
(§2) Where the first naming reader finds the target: head: Lck Activity above control (1 µM)

Substance	Lck Activity above control (1 µM)
RSKAKNPLY-RRRRRRRRR-GPLG (SEQ ID NO: 41, IK148MP9) (RSKAKNPLYRRRRRRRRRGPLG)	320%
RSKAK-R (SEQ ID NO: 26, IK50100) (RSKAKR)	0%
RSKAKNPLY-KKKKKKKKK (SEQ ID NO: 44, IK94K90)	49%
r s k a k n p l y - r r r r r r r r r (SEQ ID NO: 129, IKD14800) ([dR][dS][dK][dA][dK][dN][dP][dL][dY][dR][dR][dR][dR][dR][dR][dR][dR][dR])	490%
RSKAK-RRRR (SEQ ID NO: 29, IK50400) (RSKAKRRRR)	0%
RSKAKNPLY-RRRR (SEQ ID NO: 32, IK14300) (RSKAKNPLYRRRR)	0%
RSKAKNPLY (SEQ ID NO: 30, IK94000)	0%
RSKAK-RRR (SEQ ID NO: 28, IK50300) (RSKAKRRR)	0%
IAGQ-RSKAKNPLY-RRRRRRRRR (SEQ ID NO: 40, IKM14800) (IAGQRSKAKNPLYRRRRRRRRR)	454%
RSKAKNPLYR (SEQ ID NO: 31, IK14000)	0%

Biological target: T1, Lck
Experiment: In vitro Lck activation kinase study (Eurofins)
Assay type: biochemical
Details: peptide 1 μM where stated
Description: The ability of polypeptides of the present invention to activate Lck was examined in vitro. Lck is member of the Src family of tyrosine kinases. […] All results in are percentage Lck activity relative to control (100%).
Test polypeptides were assessed at a concentration of 1.0 μM.
The ability of polypeptides of the present invention to activate Src family kinases was examined in vitro. Kinase activation studies utilising peptides were carried out as described in Example 1, and all kinase activity values are shown as percentage relative to control.
The ability of polypeptides comprising both lysine and arginine to activate Lck in vitro was examined. Lck activation studies utilising peptides were carried out as described in Example 1, and all kinase activity values are shown as percentage relative to control.
Target sequence in this assay (P06239 whole entry): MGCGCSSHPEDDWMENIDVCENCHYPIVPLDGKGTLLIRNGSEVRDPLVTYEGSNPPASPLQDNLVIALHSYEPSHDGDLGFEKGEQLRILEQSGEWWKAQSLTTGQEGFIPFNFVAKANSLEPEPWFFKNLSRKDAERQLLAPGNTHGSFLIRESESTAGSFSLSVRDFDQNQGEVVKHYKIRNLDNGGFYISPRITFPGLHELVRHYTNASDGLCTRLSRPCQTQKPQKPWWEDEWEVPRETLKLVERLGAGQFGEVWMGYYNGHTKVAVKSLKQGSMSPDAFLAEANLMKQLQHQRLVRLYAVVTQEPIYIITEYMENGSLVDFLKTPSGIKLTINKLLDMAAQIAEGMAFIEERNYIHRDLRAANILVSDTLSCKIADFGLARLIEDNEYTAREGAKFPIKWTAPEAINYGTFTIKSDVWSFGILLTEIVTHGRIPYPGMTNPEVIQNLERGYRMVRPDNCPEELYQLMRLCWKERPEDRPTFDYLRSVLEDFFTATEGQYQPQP

Substance	Lck activation (in words)
HHHHHHHHHH [10His]	No increase in Lck activity; also recorded: did not induce any activation of Lck
RSKAK [IK5000]	no or negligible Lck activation
RSKAKNPLY-RRRR (RSKAKNPLYRRRR) [SEQ ID NO: 32]	no Lck activation
[Orn][Orn][Orn][Orn][Orn][Orn][Orn][Orn][Orn][Orn] [10 Orn]	Negligible Lck activity
RRRRR [SEQ ID NO: 2]	do not activate Lck
RRRRRR [SEQ ID NO: 3]	do not activate Lck
DDDDDDDDD [IKD9]	does not activate Lck
RVKVKVVVV [IK95000]	substantial increases in Lck activity
RRRR [SEQ ID NO: 119]	do not activate Lck
Branched < RSKAKNPLY-RRRRRRRRR-HHHHHHHHHH (RSKAKNPLYRRRRRRRRRHHHHHHHHHH; also: branched (1)..(28)) [Br IK14810]	Substantially increased Lck activity

Same assay, conditions: peptide 1 μM where stated; listed as DDDDDDDDD

Substance	Lck activation (in words)
DDDDDDDDD [IKD9]	does not increase the activity of Lck

Same assay, conditions: peptide 1 μM; relative to control

Substance	increase in Lck activity
RVKVK-RRRRRRRRR-HHHHHHHHHH (RVKVKRRRRRRRRRHHHHHHHHHH) [IK50810]	778%

Biological target: T1, Lck
Experiment: Lck Activity above control (1µM)
Details: not given
Description: First copying reader's note: The Peptide column holds the sequence together with the SEQ ID NO and the peptide code; the activity was measured at 1µM peptide, as the head states.

Substance	Lck Activity above control (1 µM)
HHHHH-RRRRRRRRR-HHHHH (SEQ ID NO: 17, IK05950) (HHHHHRRRRRRRRRHHHHH)	286%
RSKAKNPLYR-RRRRRRRR-(2Adod)4-NH2 (SEQ ID NO: 65, IK14804) (RSKAKNPLYRRRRRRRRR-{2Adod-2Adod-2Adod-2Adod-NH2})	468%
RRRRR (SEQ ID NO: 2, IK00500)	0%
RSKAKNPLY-RRRRRRRRR-NH2 (SEQ ID NO: 24, IK14800) (RSKAKNPLYRRRRRRRRR-NH2)	377%
RRRRRRRRRRRR (SEQ ID NO: 8, IK01200)	401%
RVKVKVVVVR-RRRRRRRR-(2Adod)4-NH2 (SEQ ID NO: 66, IK15804) (RVKVKVVVVRRRRRRRRR-{2Adod-2Adod-2Adod-2Adod-NH2})	335%
RRRRRRRRRRRRRR (SEQ ID NO: 9, IK01400)	351%
RRRRRRRR (SEQ ID NO: 4, IK00800)	126%
RRRRRRRRRR (SEQ ID NO: 7, IK00100)	389%
RRRRRRRRRRRRRR-OH (SEQ ID NO: 11, IK014OH)	156%
HHHHHHHHHH (SEQ ID NO: 14, 10His)	0%
RRRRRR (SEQ ID NO: 3, IK00600)	0%
OrnOrnOrnOrnOrnOrnOrnOrnOrnOrn (SEQ ID NO: 15, 10 Orn)	13%
KKKKKKKK-HHHHHHHHHH (SEQ ID NO: 18, IK00K10)	70%
HHH-RRRRRRRRR-HHH (SEQ ID NO: 16, IK03930) (HHHRRRRRRRRRHHH)	386%
RRRRRRRRRRRRRRRRRRRR (SEQ ID NO: 12, IK00200) (RRRRRRRRRRRRRRRRRRRRR)	279%
RRRR (SEQ ID NO: 1, IK00400)	0%
RRRRRRRR-HHHHHHHHHH (SEQ ID NO: 19, IK00810) (RRRRRRRRHHHHHHHHHH)	259%
DDDDDDDDD-NH2 (SEQ ID NO: 21, IKD9)	0%
DSEAENPLY-DDDDDDDDD-NH2 (SEQ ID NO: 23, IKDE800) (DSEAENPLYDDDDDDDDD-NH2)	0%

Biological target: T1, Lck
Experiment: Lck Activity above control (1 µM)
Details: not given
Remark: another data set of the same source
Description: Table printed on a drawing sheet, FIG. 5
as §1
First copying reader's note: The Peptide column holds the sequence together with its SEQ ID NO and IK code in brackets; the activity was measured at 1 µM peptide and the % sign stands in the cells.
as §2

Substance	Lck Activity above control (1 µM)
RRRRRRRR-RVKVKVVVV-R (SEQ ID NO: 59, IK80150) (RRRRRRRRRVKVKVVVVR)	520%
RVKVKVVVV-RRRRRRRRR-HHHHHHHHHH (SEQ ID NO: 60, IK50810) (RVKVKVVVVRRRRRRRRRHHHHHHHHHH)	778%
RVKVKVVVV-RHRHRHRHRHRHRHRH-HH (SEQ ID NO: 61, IK52820) (RVKVKVVVVRHRHRHRHRHRHRHRHHH)	408%
Branched < RSKAKNPLY-RRRRRRRRR-HHHHHHHHHH (SEQ ID NO: 48, Br IK14810) (RSKAKNPLYRRRRRRRRRHHHHHHHHHH; also: branched (1)..(28))	596%
HHHHH-RSKAKNPLY-RRRRRRRRR-HHHHH (SEQ ID NO: 53, IK51455) (HHHHHRSKAKNPLYRRRRRRRRRHHHHH)	685%
KEKLKNPLFK-RRRRRRRR-HHHHHHHHHH (SEQ ID NO: 64, IKB2810) (KEKLKNPLFKRRRRRRRRHHHHHHHHHH)	379%
HHHHH-RRRRRRRRR-HHHHH-RSKAKNPLYR (SEQ ID NO: 51, IK59514) (HHHHHRRRRRRRRRHHHHHRSKAKNPLYR)	441%
RSKAKNPLY-RRRRRRRRR-HHHHHHHHHHHH (SEQ ID NO: 49, IK14820) (RSKAKNPLYRRRRRRRRRHHHHHHHHHHHH)	556%
RVKVKVVVV-RRRRRRRRR (SEQ ID NO: 58, IK15800) (RVKVKVVVVRRRRRRRRR)	479%
RSKAKNPLY-RKRKRKRKRK (SEQ ID NO: 54, IK94RK0) (RSKAKNPLYRKRKRKRKRK)	456%
RSKAKNPLY-RRRRRRRRR-HHHHH (SEQ ID NO: 46, IK14510) (RSKAKNPLYRRRRRRRRRHHHHH)	524%
RVKVKVVVV-RRRRR (SEQ ID NO: 56, IK15400) (RVKVKVVVVRRRRR)	382%
RRRRRRRR-HHHHHHHHHH-RSKAKNPLYR (SEQ ID NO: 52, IK81140) (RRRRRRRRHHHHHHHHHHRSKAKNPLYR)	567%
RVKVKVVVV-RRRRRRRR (SEQ ID NO: 57, IK15700) (RVKVKVVVVRRRRRRRR)	512%
RVKVKVVVV (SEQ ID NO: 55, IK95000)	518%
